Test results taken from patent US20160355587A1.

Target: human CD166 on human cells or tissue (human) (UniProt Q13740)
Test: inhibition of adhesion of CD166-expressing HuT-78 cells to immobilized recombinant CD6

Chain of human CD166 on human cells or tissue (human) (Q13740 28-583): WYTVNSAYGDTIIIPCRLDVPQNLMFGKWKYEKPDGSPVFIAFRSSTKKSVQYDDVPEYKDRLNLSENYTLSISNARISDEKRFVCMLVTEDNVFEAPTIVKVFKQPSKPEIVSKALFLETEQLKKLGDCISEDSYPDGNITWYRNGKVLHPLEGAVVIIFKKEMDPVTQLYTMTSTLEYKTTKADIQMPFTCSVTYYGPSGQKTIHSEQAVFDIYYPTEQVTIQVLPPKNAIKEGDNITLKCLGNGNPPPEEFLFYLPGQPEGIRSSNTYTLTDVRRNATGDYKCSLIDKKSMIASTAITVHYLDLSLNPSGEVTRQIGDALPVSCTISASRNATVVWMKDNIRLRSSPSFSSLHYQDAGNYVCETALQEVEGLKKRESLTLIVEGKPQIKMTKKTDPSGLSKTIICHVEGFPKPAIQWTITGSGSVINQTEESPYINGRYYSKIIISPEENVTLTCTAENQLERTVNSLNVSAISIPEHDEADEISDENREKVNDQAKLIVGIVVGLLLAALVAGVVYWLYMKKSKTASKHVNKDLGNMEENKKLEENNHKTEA

EC50: 3.7 nM
Substance: MAB656 (antibody)
